Measurements reported in patent US9932382B2, “Kv2.1 channel-derived peptides and methods of use” (University of Pittsburgh—Of the Commonwealth System of …, priority 2014, dated 2018).

How the values were obtained:
[1] = target: T1, Kv2.1/syntaxin binding (Homo sapiens, UniProt Q16623); test: Co-immunoprecipitation of Kv2.1 with syntaxin from transfected CHO cells; assay type: cell-based; conditions: for effect on Kv2.1/syntaxin binding (co-immunoprecipitation): syntaxin-expressing CHO cells co-transfected with Kv2.1 and peptide plasmid, syntaxin immunoprecipitates probed for Kv2.1
T1 construct: expressed in transfected cells; host or cells: CHO cells
T1 sequence (Q16623 whole entry): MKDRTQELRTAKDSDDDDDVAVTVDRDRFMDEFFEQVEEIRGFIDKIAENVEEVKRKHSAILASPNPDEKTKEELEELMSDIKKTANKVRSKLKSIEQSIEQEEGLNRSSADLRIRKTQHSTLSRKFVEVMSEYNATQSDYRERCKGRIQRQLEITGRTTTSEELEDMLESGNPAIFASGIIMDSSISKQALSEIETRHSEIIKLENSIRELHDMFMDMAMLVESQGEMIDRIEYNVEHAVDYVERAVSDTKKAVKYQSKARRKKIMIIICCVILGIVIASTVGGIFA
Experimental: For electrophysiological experiments, mixed cortical neuronal/glial cultures were prepared from embryonic day 16 (E16) Sprague-Dawley rats (Charles River Laboratories, Wilmington, Mass., USA). Donor rats were euthanized by gradual CO2 exposure. Cortices were dissociated with trypsin, and the resultant cell suspension, adjusted to 670,000 cells per well, was plated on glass coverslips in 6-well plates as described previously (Hartnett et al., J Neurochem 68, 1836-1845, 1997). Non-neuronal cell proliferation was inhibited after two weeks in culture with 1-2 μM cytosine arabinoside, and cultures utilized at three to four weeks in vitro. For neuronal transfection, cells were treated for five hours in serum-free medium with 2 μL LIPOFECTAMINE™ 2000 (Invitrogen, Carlsbad, Calif.), 50 μL Optimem (GIBCO, Grand Island, N.Y.), and 1.5 μg DNA per well. For CHO cell transfections, cells were plated on coverslips in 24-well plates at a density of 5.6×10^4 cells per well for electrophysiological measurements or in 100 mm dishes at a density of 1.7×10^6 cells per dish for biochemical studies. Cells were treated for 3-4 hours in serum-free medium with a total of 1.2 μL LIPOFECTAMINE™ and 0.28 μg DNA per well for electrophysiology, or 55.1 μL LIPOFECTAMINE™ and 7.33 μg DNA per dish for biochemistry. Following transfection, cells were maintained in F12 medium containing fetal bovine serum at 37° C., 5% CO2 for 24 hours prior to experimentation.
Protein was harvested by washing cell culture dishes with ice cold PBS followed by a short incubation with 1% 3-[(3-cholamidopropyl) dimethylammonio]-1-propanesulfonate buffer. Protein A/G agarose bead slurry (Santa Cruz, Dallas, Tex.) was added to the samples and rocked at 4° C. for 1 hour in order to pre-clear non-specific protein binding. Samples were then incubated overnight at 4° C. with the appropriate immunoprecipitating antibodies. Following another incubation with the bead slurry, the protein samples were prepared/denatured by the addition of sample preparation buffer (625 mM Tris, 25% glycerol, 2% sodium dodecyl sulfate (SDS), 0.01% bromophenol blue and 5% β-mercaptoethanol) and heated at 95° C. for 5 min prior to SDS polyacrylamide gel electrophoresis and immunoblotting.
Protein samples from equal amounts of cell lysate were separated on 10% sodium dodecyl sulfate SDS polyacrylamide gels by electrophoresis using the Mini Protean 3 System (Bio-Rad, Hercules, Calif.). Separated protein bands were transferred onto 0.2 μm nitrocellulose membranes (Bio-Rad), blocked with 1% bovine serum albumin (BSA) in PBS with 0.05% Tween 20 (PBST) at room temperature for 1 hour, and probed with appropriate primary antibodies diluted in PBST. Blots were then incubated with infrared fluorescent goat secondary antibodies at room temperature for 1 hour, visualized using the Odyssey Imaging System (LI-COR Biosciences, Lincoln, Nebr.), and quantified using infrared fluorimetry.
After establishing that C1a effectively precluded the oxidant-induced K^+ current increase in neurons, studies were performed to identify the sub-domains within C1a that could retain the ability to disrupt Kv2.1/syntaxin binding. C1a was divided into overlapping proximal and distal segments, hereafter referred to as C1a411-472 and C1a441-522, respectively. Co-immunoprecipitation experiments were performed to compare the ability of C1a and the smaller segments to displace Kv2.1 from syntaxin. Syntaxin immunoprecipitates of protein samples obtained from CHO cells transfected with a syntaxin-expressing plasmid, and co-transfected with Kv2.1 together with C1a, C1a411-472, or C1a441-522, were probed for Kv2.1.

[2] = tested on: Kv2.1S800E; test: Whole-cell K+ current densities in CHO cells expressing Kv2.1S800E; assay type: cell-based; conditions: CHO cells co-transfected with Kv2.1S800E and peptide plasmid
Experimental: For electrophysiological experiments, mixed cortical neuronal/glial cultures were prepared from embryonic day 16 (E16) Sprague-Dawley rats (Charles River Laboratories, Wilmington, Mass., USA). Donor rats were euthanized by gradual CO2 exposure. Cortices were dissociated with trypsin, and the resultant cell suspension, adjusted to 670,000 cells per well, was plated on glass coverslips in 6-well plates as described previously (Hartnett et al., J Neurochem 68, 1836-1845, 1997). Non-neuronal cell proliferation was inhibited after two weeks in culture with 1-2 μM cytosine arabinoside, and cultures utilized at three to four weeks in vitro. […]
Current recordings were performed on eGFP-positive co-transfected neurons or CHO cells using the whole-cell patch clamp configuration technique as described previously (McLaughlin et al., J Neurosci 21, 3303-3311, 2001). […] To determine current density values, steady-state current amplitudes were measured 180 msec after the initiation of the +10 mV step and normalized to cell capacitance. […] By repeatedly adjusting the scaling factor k, an automated binary search algorithm determined threshold synaptic conductance (thresh-gsyn), the conductance required to reach firing threshold (Kullmann et al., J Neurophysiol 91, 542-54, 2004). […]

| Molecule | ability to displace Kv2.1 from syntaxin with Src kinase overexpression ([1]; CHO cells co-transfected with Kv2.1 and Src) | effect on Kv2.1/syntaxin binding (co-immunoprecipitation) [1] | effect on enhanced K+ currents of Kv2.1S800E [2] |
| --- | --- | --- | --- |
| C1a441-522: distal segment of C1a, residues 441-522 of rat Kv2.1 (protein, UniProt P15387 441-522, looked up, fragment) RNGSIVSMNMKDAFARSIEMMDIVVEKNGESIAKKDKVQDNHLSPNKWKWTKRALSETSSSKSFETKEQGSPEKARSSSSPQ | retained the ability to displace Kv2.1 from syntaxin | inhibited Kv2.1/syntaxin binding | blocked the increase in currents |
| C1a: rat Kv2.1 C1a peptide, residues 411-522 of SEQ ID NO: 3, expressed from a plasmid (protein, listed as Rattus norvegicus) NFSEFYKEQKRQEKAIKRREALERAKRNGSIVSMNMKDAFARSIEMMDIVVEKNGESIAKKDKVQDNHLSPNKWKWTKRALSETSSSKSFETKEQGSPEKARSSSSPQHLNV | – | inhibited Kv2.1/syntaxin binding | suppressed the enhanced K^+ currents |
